The text below walks through data of paper PMC5715728.

The test addresses major capsid protein (MCP) (human cytomegalovirus (HCMV) strain AD169) (UniProt P16729). The test is described as follows: cryo-EM structure.

Consider “smallest capsid protein (SCP) (from UniProt Q7M6N6 1-75) (natural protein)”, for which the stoichiometry N (commonly the number of molecules, sites or subunits per partner or assembly) was determined as 1.
